In data set [1] the target is PagRBc, PagR homologue (ArsR/SmtB family transcription factor) of emetic B. cereus F4810/72, encoded on pCER270 (Bacillus cereus F4810/72 (emetic reference strain)). The data set can be described thus: two-hybrid.
Data set [2] deals with PagR1Bc (Bacillus cereus F4810/72 (AH187), plasmid pCER270). The data set can be described thus: EMSA. (In EMSA bound probe runs differently from free probe, usually more slowly.)
The test system of data set [3] is PagRBa (PagR) (Bacillus anthracis Sterne, plasmid pXO1). Nature of the data set: EMSA.
For data set [4], the system named is PagRBc (Bacillus cereus F4810/72 (AH187), plasmid pCER270). Nature of the data set: EMSA.

For orientation: Kd means the concentration at which binding is half-saturated. A higher Kd goes with lower affinity.

In data set [1], “PagRBc, PagR homologue (ArsR/SmtB family transcription factor) of emetic B. cereus F4810/72, encoded on pCER270 (natural protein)” yielded a fold of self-interaction (β-galactosidase activity) against the self-interaction of PagR1Bc of 1.75 fold.

In the case of cesP main promoter (cesPII), 523 bp, the figures for the Kd in data set [2], in data set [3] and in data set [4] were 150 nM, 25 nM and 25 nM, respectively.

These data come from publication PMC9570423.
